Laboratory results: patent US20100255008A1

Target: Mouse soluble TWEAK (mouse) (UniProt O54907)
Assay: receptor interaction ELISA: antibody pre-incubated with mouse soluble TWEAK, binding to coated mouse Fn14:Fc

| Binder | IC50 [ng/mL] |
| --- | --- |
| TW212 (antibody) VL: DIVLTQSPAYLTMSPGQTTTISCKASQSVSIGPIHLMHWYQQKPGQPPRLLIYGASNPESGVPARFSGSGSGTDFTLTIHPVEADDAATYFCQQGKESPRTFGPGTKLEITRADAKPTVSIFPPSSEQLGTGSATLVCFVNNFYPKDINVKWKVDGSEKRDGVLQSVTDQDSKDSTYSLSSTLSLTKADYERHNLYTCEVTHKTSTAAIVKTLNRNEC VH: QVQLQESGPGLLKPAQSLSLTCTVTGYSIRSGYWWSWIRQQPGKGLEWMGQIYNKGNTDNNPSLKSQITMTVDTSKNQFFLRLRSVTTEDTAVYYCARVFWDDAYFDVWGQGIQVTVSSATTTAPSVYPLAPACDSTTSTTNTVTLGCLVKGYFPEPVTVSWNSGALTSGVHTFPSVLHSGLYSLSSSVTVPSSTWPSQTVTCNVAHPASSTKVDKKIVPGDGSGCKPCTCPGPEVSSVFIFPPKPKDVLTISLSPKVTCVVVDISQDDPEVQFSWFIDGKEVHTAVTQPREEQFNSTYRMVSVLPILHQDWLNGKEFKCKVNSPAFPVPIEKTISKRRGQLQVPQVYTMPPPKEQLTQSQVSLTCMIKGFYPEDIDVAWQKNGQPEQSFKNTPPVLDTDETYFLYSKLDVKKDDWEKGDTFTCSVVHEALHNHHTEKTLSQRPGK | 4.6 |
| TW205 (antibody, V domains shown) VH: QIHLQESGLGLVKPSQSLTLTCSVTGFSITTPDYSWHWIRQFPGQTLEWMGFLYYEGDTYYNPSLKSRISIARDASKNQFFLQLKSVTTEDTATYFCVRRKYSGYGNWFAYWGQGTQVTVSS VL: QPVLTQAPSASASLRASVKLTCTLSSQHSTYYIEWYQQHPDKAPRYVMYVDSDGSHIKGDGVPDRFSGSSSGARRYLSISNLQPEDEAIYHCGVYDSTAGAVFGSGTQLTVLG | 5.1 |
| TW202 (antibody, V domains shown) VH: QLQLQESGLGLVKPSQSLTLTCSVTGFSITTPDYSWHWIRQLPGQTLEWMGFLYYEGDTYYNPSLKSRISIARDASKNQFFLQLKAVTTEDTATYFCARRKYSGYGNWFAYWGQGTLVTVSL VL: QPVLTQSPSASASLRASVKLTCTLSSQHSTYYIEWYQQRPDKAPKYVMYLDSDGSHIKGDGIPDRFSGSSSGAHRYLSISNLQPEDEAIYHCGVYDSTAGAVFGSGTQLTVLG | 9 |
| Antibody 15 (antibody, V domains shown) VH: QVQLQESGPGLVKPSETLSLTCAVSGYSIRSGYWWSWIRQPPGKGLEWIGQIYNKGNTDNNPALKSRVTISVDTSKNQFSLKLSSVTAADTAVYYCARVFWDDAYFDVWGQGTMVTVSS VL: EIVLTQSPATLSLSPGERATLSCKASQSVSIGPIHLMHWYQQKPGQAPRLLIYGASNPESGIPARFSGSGSGTDFTLTISSLEPEDFAVYYCQQGKESPRTFGQGTKLEIK | 5 |
| Antibody 19 (antibody, V domains shown) VH: QVQLQESGPGLVKPSETLSLTCAVSGYSIRSGYWWSWIRQQPGKGLEWIGQIYNKGNTDNNPALKSQVTISVDTSKNQFSLKLSSVTAADTAVYYCARVFWDDAYFDVWGQGTMVTVSS VL: EIVLTQSPATLSLSPGERATLSCKASQSVSIGPIHLMHWYQQKPGQAPRLLIYGASNPESGIPARFSGSGSGTDFTLTISSLEPEDFAVYYCQQGKESPRTFGQGTKLEIK | 7 |
| Antibody 17 (antibody, V domains shown) VH: QVQLQESGPGLVKPSETLSLTCTVSGYSIRSGYWWSWIRQPPGKGLEWIGQIYNKGNTDNNPALKSRVTISVDTSKNQFSLKLSSVTAADTAVYYCARVFWDDAYFDVWGQGTMVTVSS VL: EIVLTQSPATLSLSPGERATLSCKASQSVSIGPIHLMHWYQQKPGQAPRLLIYGASNPESGIPARFSGSGSGTDFTLTISSLEPEDFAVYYCQQGKESPRTFGQGTKLEIK | 6 |
| Antibody 18 (antibody, V domains shown) VH: QVQLQESGPGLVKPSETLSLTCTVSGYSIRSGYWWSWIRQPPGKGLEWIGQIYNKGNTDNSPSLKSRVTISVDTSKNQFSLKLSSVTAADTAVYYCARVFWDDAYFDVWGQGTMVTVSS VL: EIVLTQSPATLSLSPGERATLSCKASQSVSIGPIHLMHWYQQKPGQAPRLLIYGASNPESGIPARFSGSGSGTDFTLTISSLEPEDFAVYYCQQGKESPRTFGQGTKLEIK | 6 |
| Antibody 25 (antibody, V domains shown) VH: QVQLQESGPGLVKPSETLSLTCAVSGYSIRSGYWWSWIRQQPGKGLEWIGQIYNKGNTDNNPALKSQVTISVDTSKNQFSLKLSSVTAADTAVYYCARVFWDDAYFDVWGQGTMVTVSS VL: EIVLTQSPGTLSLSPGERATLSCKASQSVSIGPIHLMHWYQQKPGQAPRLLIYGASNPESGIPDRFSGSGSGTDFTLTISRLEPEDFAVYYCQQGKESPRTFGQGTKLEIK | 18 |
| Antibody 24 (antibody, V domains shown) VH: QVQLQESGPGLVKPSETLSLTCTVSGYSIRSGYWWSWIRQPPGKGLEWIGQIYNKGNTDNSPSLKSRVTISVDTSKNQFSLKLSSVTAADTAVYYCARVFWDDAYFDVWGQGTMVTVSS VL: EIVLTQSPGTLSLSPGERATLSCKASQSVSIGPIHLMHWYQQKPGQAPRLLIYGASNPESGIPDRFSGSGSGTDFTLTISRLEPEDFAVYYCQQGKESPRTFGQGTKLEIK | 8 |
| Antibody 22 (antibody, V domains shown) VH: QVQLQESGPGLVKPSETLSLTCAVSGYSIRSGYWWSWIRQPPGKGLEWIGQIYNKGNTDNSPSLKSRVTISVDTSKNQFSLKLSSVTAADTAVYYCARVFWDDAYFDVWGQGTMVTVSS VL: EIVLTQSPGTLSLSPGERATLSCKASQSVSIGPIHLMHWYQQKPGQAPRLLIYGASNPESGIPDRFSGSGSGTDFTLTISRLEPEDFAVYYCQQGKESPRTFGQGTKLEIK | 5 |
| Antibody 16 (antibody, V domains shown) VH: QVQLQESGPGLVKPSETLSLTCAVSGYSIRSGYWWSWIRQPPGKGLEWIGQIYNKGNTDNSPSLKSRVTISVDTSKNQFSLKLSSVTAADTAVYYCARVFWDDAYFDVWGQGTMVTVSS VL: EIVLTQSPATLSLSPGERATLSCKASQSVSIGPIHLMHWYQQKPGQAPRLLIYGASNPESGIPARFSGSGSGTDFTLTISSLEPEDFAVYYCQQGKESPRTFGQGTKLEIK | 7 |
| Antibody 21 (antibody, V domains shown) VH: QVQLQESGPGLVKPSETLSLTCAVSGYSIRSGYWWSWIRQPPGKGLEWIGQIYNKGNTDNNPALKSRVTISVDTSKNQFSLKLSSVTAADTAVYYCARVFWDDAYFDVWGQGTMVTVSS VL: EIVLTQSPGTLSLSPGERATLSCKASQSVSIGPIHLMHWYQQKPGQAPRLLIYGASNPESGIPDRFSGSGSGTDFTLTISRLEPEDFAVYYCQQGKESPRTFGQGTKLEIK | 5 |
| Antibody 26 (antibody, V domains shown) VH: QVQLQESGPGLVKPSETLSLTCAVSGYSIRSGYWWSWIRQQPGKGLEWIGQIYNKGNTDNSPSLKSQVTISVDTSKNQFSLKLSSVTAADTAVYYCARVFWDDAYFDVWGQGTMVTVSS VL: EIVLTQSPGTLSLSPGERATLSCKASQSVSIGPIHLMHWYQQKPGQAPRLLIYGASNPESGIPDRFSGSGSGTDFTLTISRLEPEDFAVYYCQQGKESPRTFGQGTKLEIK | 36 |
| Antibody 20 (antibody, V domains shown) VH: QVQLQESGPGLVKPSETLSLTCAVSGYSIRSGYWWSWIRQQPGKGLEWIGQIYNKGNTDNSPSLKSQVTISVDTSKNQFSLKLSSVTAADTAVYYCARVFWDDAYFDVWGQGTMVTVSS VL: EIVLTQSPATLSLSPGERATLSCKASQSVSIGPIHLMHWYQQKPGQAPRLLIYGASNPESGIPARFSGSGSGTDFTLTISSLEPEDFAVYYCQQGKESPRTFGQGTKLEIK | 14 |
| Antibody 23 (antibody, V domains shown) VH: QVQLQESGPGLVKPSETLSLTCTVSGYSIRSGYWWSWIRQPPGKGLEWIGQIYNKGNTDNNPALKSRVTISVDTSKNQFSLKLSSVTAADTAVYYCARVFWDDAYFDVWGQGTMVTVSS VL: EIVLTQSPGTLSLSPGERATLSCKASQSVSIGPIHLMHWYQQKPGQAPRLLIYGASNPESGIPDRFSGSGSGTDFTLTISRLEPEDFAVYYCQQGKESPRTFGQGTKLEIK | 6 |
